Measured values as given in article PMC5893644.

Key:
[1] = target: P3a^P18L-RFP (Brassica yellows virus (BrYV-A)); assay: SDS-PAGE and western blot (dimer band under denaturing conditions); total protein of agroinfiltrated N. benthamiana leaves in 2x SDS-PAGE buffer, 100 °C 10 min, 12.5% SDS-PAGE; antisera to GFP or RFP
[2] = target: BrYV P3a^P18L, 3xFlag- and GFP-tagged copies (Brassica yellows virus (BrYV-A)); assay: as above
[3] = target: His.MBP-P3a^P18L fusion protein (Brassica yellows virus (BrYV-A)); assay: SDS-PAGE and western blot (dimer band under denaturing conditions); E. coli Rosetta (DE3) induced with 0.1 mM IPTG at 18 °C for 20 h; 12.5% SDS-PAGE; anti-MBP monoclonal antibody

Substance “P3a^P18L-RFP (from UniProt A0A897TIH8 1-45) (natural protein)” has a stoichiometry N [1] of 2.

“BrYV P3a^P18L, 3xFlag- and GFP-tagged copies (from UniProt A0A897TIH8 1-45) (natural protein)” was tested, and the stoichiometry N [2] was 2.

“His.MBP-P3a^P18L fusion protein (from UniProt A0A897TIH8 1-45) (natural protein)” was tested, and the stoichiometry N [3] was 2.
